Data on 18 molecules can be found in patent US20050282739A1 (PALATIN TECHNOLOGIES, published 2005).

Assay [1] deals with T1, melanocortin-1 receptor (MC1-R) of B-16 mouse melanoma cells (mouse, UniProt Q01727 1-315).
T1 construct: whole, on cells; membranes prepared from the cells were used; also called Melanocortin Receptor 1
In words: 125I-NDP-α-MSH competition, B-16 membranes. How it is done: (§1) The competitive inhibition binding assay was conducted using membranes prepared from hMC3-R, hMC4-R, hMC5-R, and B-16 mouse melanoma cells (containing MC1-R) using 0.4 nM ¹²⁵I-NDP-alpha-MSH (New England Nuclear, Boston, Mass., USA) in 50 mM HEPES buffer containing 1 mM MgCl₂, 2 mM CaCl₂, and 5 mM KCl, at pH 7.2. […] Incubation was for 90 minutes at room temperature, after which the assay mixture was filtered and the membranes washed three times with ice cold buffer. The filter was dried and counted in a gamma counter for remaining radioactivity bound to the membranes. 100% specific binding was defined as the difference in radioactivity (cpm) bound to cell membranes in the absence and presence of 1 μM α-MSH. […] Each assay was conducted in triplicate and the actual mean valves are described.
The methods and assays set forth in Example 1 were followed.

Assay [2] addresses T1, melanocortin-1 receptor (MC1-R) of B-16 …. In words: 125I-NDP-α-MSH competition, B-16 membranes. The method, then:
as §1
This is another data set of the same source.

In assay [3] the target is T2, human melanocortin-3 receptor (hMC3-R) (human, UniProt P41968 1-323).
T2 construct: whole, on cells; membranes prepared from hMC3-R cells were used; also called Melanocortin Receptor 3
T2 sequence (P41968 whole entry): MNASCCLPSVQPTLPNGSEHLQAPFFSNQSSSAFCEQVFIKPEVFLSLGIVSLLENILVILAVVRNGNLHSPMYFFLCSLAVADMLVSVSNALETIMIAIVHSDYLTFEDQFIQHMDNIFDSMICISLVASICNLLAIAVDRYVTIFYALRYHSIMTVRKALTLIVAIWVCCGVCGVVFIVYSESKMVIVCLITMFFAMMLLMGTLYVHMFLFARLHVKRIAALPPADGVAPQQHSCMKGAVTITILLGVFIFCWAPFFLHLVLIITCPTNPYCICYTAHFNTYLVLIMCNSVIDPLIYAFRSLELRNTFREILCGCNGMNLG
In words: 125I-NDP-α-MSH competition, hMC3-R membranes. The method, then:
as §1

Assay [4] has as its target T3, human melanocortin-4 receptor (hMC4-R) (human, UniProt P32245 1-332).
T3 construct: whole, on cells; membranes prepared from hMC4-R cells were used; also called Melanocortin Receptor 4
The experiment in a line: 125I-NDP-α-MSH competition, hMC4-R membranes. How it is done: as §1

The target in assay [5] is T3, human melanocortin-4 receptor (hMC4-R). In words: 125I-NDP-α-MSH competition, hMC4-R membranes. How it is done: as §1
(§2) The first unnumbered peptide in Table 3 is the parent polypeptide, which is a Nle³, D-Phe⁶ substituted γ-MSH analog specific for melanocortin receptors. The methods and assays set forth in Example 1 were followed.
This is another data set of the same source.

In assay [6] the target is T4, human melanocortin-5 receptor (hMC5-R) (human, UniProt P33032 1-325).
T4 construct: whole, on cells; membranes prepared from hMC5-R cells were used; also called Melanocortin Receptor 5
T4 sequence (P33032 whole entry): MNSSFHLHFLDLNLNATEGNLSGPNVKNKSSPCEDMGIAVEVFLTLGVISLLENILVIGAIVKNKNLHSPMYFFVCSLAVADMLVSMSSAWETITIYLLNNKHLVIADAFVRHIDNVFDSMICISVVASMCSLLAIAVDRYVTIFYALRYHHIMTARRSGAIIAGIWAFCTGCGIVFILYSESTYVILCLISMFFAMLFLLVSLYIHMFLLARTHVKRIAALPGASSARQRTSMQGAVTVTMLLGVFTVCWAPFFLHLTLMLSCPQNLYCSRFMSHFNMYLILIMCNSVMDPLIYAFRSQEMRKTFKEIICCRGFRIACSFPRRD
In words: 125I-NDP-α-MSH competition, hMC5-R membranes. The method, then:
as §1, §2

Assay [7] concerns the target T1, melanocortin-1 receptor (MC1-R) of B-16 …. The experiment in a line: 125I-NDP-α-MSH competition, B-16 membranes. How it is done:
as §1, §2
The source holds these as a separate data set.

Assay [8] addresses T2, human melanocortin-3 receptor (hMC3-R). In words: 125I-NDP-α-MSH competition, hMC3-R membranes. The method, then:
as §1, §2
This is another data set of the same source.

The target in assay [9] is T4, human melanocortin-5 receptor (hMC5-R). The experiment in a line: 125I-NDP-α-MSH competition, hMC5-R membranes. How it is done: as §1
The source holds these as a separate data set.

Where two headings read alike, the source gives them in different places. Square brackets hold non-standard residues; d marks the D form. Ends that are not written are not given here. Nle = CCCC[C@H](N)C(=O)O

T3 sequence (P32245 whole entry): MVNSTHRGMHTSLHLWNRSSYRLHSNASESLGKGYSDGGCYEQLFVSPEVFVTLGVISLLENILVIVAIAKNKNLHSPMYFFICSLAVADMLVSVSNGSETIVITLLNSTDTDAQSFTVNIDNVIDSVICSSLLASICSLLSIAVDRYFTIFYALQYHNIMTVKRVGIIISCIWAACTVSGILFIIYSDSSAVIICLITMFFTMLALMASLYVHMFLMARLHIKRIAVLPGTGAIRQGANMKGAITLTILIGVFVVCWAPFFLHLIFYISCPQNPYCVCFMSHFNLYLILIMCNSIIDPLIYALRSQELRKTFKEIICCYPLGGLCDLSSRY
T1 sequence (Q01727 whole entry): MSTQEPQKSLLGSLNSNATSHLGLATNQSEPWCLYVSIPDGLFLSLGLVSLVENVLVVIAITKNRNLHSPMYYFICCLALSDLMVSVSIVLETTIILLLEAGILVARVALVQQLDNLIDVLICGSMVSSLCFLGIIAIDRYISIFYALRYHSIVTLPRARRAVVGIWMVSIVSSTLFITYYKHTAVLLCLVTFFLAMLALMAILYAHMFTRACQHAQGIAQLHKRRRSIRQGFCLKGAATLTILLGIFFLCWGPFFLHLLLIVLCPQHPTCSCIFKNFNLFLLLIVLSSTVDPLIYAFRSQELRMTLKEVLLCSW

B1: α-MSH parent polypeptide Ac-Ser-Tyr-Ser-Met-Glu-His-Phe-Arg-Trp-Gly-Lys-Pro-Val-NH2 (peptide)
peptide: Ac-SYSMEHFRWGKPV-NH2
notes: not complexed to Re; also called α-MSH analog
For B1, the “% Inhibition at 1 µM” value in assay [1] and in assay [2] was 99% in each case.

Consider Ac-SYS[Nle]EHCFRWGKPV-NH2 (also: oxorhenium(V) N3S1 chelate at Cys7) [metallopeptide 1-8], for which the “% Inhibition at 1 µM” value in assay [3] worked out at 0%; in assay [2] it was 42%; in assay [4] it was 0%.

B2: metallopeptide 3-5 (peptide)
peptide: YV[Nle]GH[dF]RCWDRF-NH2
modifications: not fully specified (bridges); printed as Tyr-Val-Nle-Gly-His-D-Phe-Arg-Cys-Trp-Asp-Arg-Phe-NH2; also: bridge at 8 via Re(V)=O, other end not in the chain
With B2, the “% Inhibition at 1 µM” value in assay [5] came out at 33%; in assay [6] it was 81%; in [7], 83%; in [8] it was 45%.

For Ac-SYS[Nle]EHFRWCGKPV-NH2 (also: oxorhenium(V) N3S1 chelate at Cys10) [metallopeptide 1-5], the “% Inhibition at 1 µM” value in assay [3] amounted to 0%; in assay [9], 0%; in assay [2] it was 57%; in [4], 0%.

Regarding Ac-SYSC[Nle]EHFRWGKPV-NH2 (also: oxorhenium(V) N3S1 chelate at Cys4) [metallopeptide 1-11], the “% Inhibition at 1 µM” value was found to be 18% in assay [3], 6% in assay [9], 95% in assay [2] and 21% in assay [4].

Ac-SYS[Nle]ECHFRWGKPV-NH2 (also: oxorhenium(V) N3S1 chelate at Cys6) [metallopeptide 1-9]: the “% Inhibition at 1 µM” value in assay [3] was 0%; in assay [9] it was 6%; in [2] it was 74%.

For the molecule Ac-SYS[Nle]EHFRWGCKPV-NH2 (also: oxorhenium(V) N3S1 chelate at Cys11) [metallopeptide 1-4], the “% Inhibition at 1 µM” value was determined as 0% in assay [3], 72% in [2] and 0% in assay [4].

As for Ac-SYS[Nle]EHFRWGKCPV-NH2 (also: oxorhenium(V) N3S1 chelate at Cys12) [metallopeptide 1-3], the “% Inhibition at 1 µM” value in [3] came to 0%; in assay [9], 12%; in assay [2] it was 87%; in [4], 0%.

B3: metallopeptide 3-2 (peptide)
peptide: YV[Nle]GH[dF]RWDRCF-NH2
modifications: not fully specified (bridges); printed as Tyr-Val-Nle-Gly-His-D-Phe-Arg-Trp-Asp-Arg-Cys-Phe-NH2; also: oxorhenium(V) N3S1 chelate (backbone N of D9, R10, C11 and C11 S)
As to B3, the “% Inhibition at 1 µM” value in [5] amounted to 89%; in assay [6], 100%; in [7] it was 99%; in assay [8], 91%.

Regarding Ac-SYCS[Nle]EHFRWGKPV-NH2 (also: oxorhenium(V) N3S1 chelate at Cys3) [metallopeptide 1-12], the “% Inhibition at 1 µM” value worked out at 15% in [3], 19% in [9], 96% in assay [2] and 26% in assay [4].

On to YVXGHFRWDRFC (Nle 3 (X in letters); D-Phe 6; C-terminal amide; Re complexed at Cys 12) [metallopeptide 3-1], for which the “% Inhibition at 1 µM” value in [5] came out at 98%; in [6], 102%; in [7] it was 95%; in [8] it was 96%.

B4: metallopeptide 3-3 (peptide)
peptide: YV[Nle]GH[dF]RWDCRF-NH2
modifications: not fully specified (bridges); printed as Tyr-Val-Nle-Gly-His-D-Phe-Arg-Trp-Asp-Cys-Arg-Phe-NH2; also: oxorhenium(V) N3S1 chelate (backbone N of W8, D9, C10 and C10 S)
Take B4: the “% Inhibition at 1 µM” value in assay [5] came to 99%; in assay [6], 99%; in [7], 99%; in [8], 95%.

B5: metallopeptide 3-4 (peptide)
peptide: YV[Nle]GH[dF]RWCDRF-NH2
modifications: not fully specified (bridges); printed as Tyr-Val-Nle-Gly-His-D-Phe-Arg-Trp-Cys-Asp-Arg-Phe-NH2; also: oxorhenium(V) N3S1 chelate (backbone N of R7, W8, C9 and C9 S)
On to B5, for which the “% Inhibition at 1 µM” value in assay [5] amounted to 94%; in assay [6] it was 100%; in [7], 98%; in assay [8], 88%.

As for Ac-SYS[Nle]EHFRWGKGCV-NH2 (also: oxorhenium(V) N3S1 chelate at Cys13) [metallopeptide 1-2], the “% Inhibition at 1 µM” value in assay [9] was found to be 37%; in assay [2] it was 87%; in assay [4] it was 0%.

As for Ac-SYS[Nle]EHFRCWGKPV-NH2 (also: oxorhenium(V) N3S1 chelate at Cys9) [metallopeptide 1-6], the “% Inhibition at 1 µM” value turned out to be 0% in assay [3], 0% in [9], 29% in assay [2] and 0% in assay [4].

On to Ac-SYS[Nle]CEHFRWGKPV-NH2 (also: oxorhenium(V) N3S1 chelate at Cys5) [metallopeptide 1-10], for which the “% Inhibition at 1 µM” value in assay [3] was 0%; in assay [9], 5%; in [2], 72%.

With Ac-SYS[Nle]EHFRWGKGVC-NH2 (not fully specified; also: oxorhenium(V) N3S1 chelate at Cys14) [metallopeptide 1-1], the “% Inhibition at 1 µM” value in [3] was found to be 48%; in assay [9], 68%; in [2], 95%; in assay [4], 63%.

Regarding Ac-SYS[Nle]EHFCRWGKPV-NH2 (also: oxorhenium(V) N3S1 chelate at Cys8) [metallopeptide 1-7], the “% Inhibition at 1 µM” value in assay [3] is 0%; in [9] it was 0%; in assay [2] it was 68%; in assay [4] it was 0%.

For orientation: % Inhibition means the relative decrease from the control value, in per cent.
